From publication PMC8575462, “PP2A/B55α substrate recruitment as defined by the retinoblastoma-related protein p107” (eLife, 2021)
Each block holds one molecule with its values, some of them ahead of it.

Experiments:
[1] = target: B55α; assay: YFP pulldown, mass spectrometry; conditions: -log10 p-value est. 2.6; read off a plot
[2] = target: PP2A/A; assay: YFP pulldown, mass spectrometry; conditions: -log10 p-value est. 2.2; read off a plot
[3] = target: Flag-pRB (UniProt P06400); assay: co-immunoprecipitation (anti-Myc IP), western blot quantitation; conditions: 293T cells, co-transfected; parent: est. 1.0; read off a plot
[4] = target: purified PP2A/B55α holoenzyme (trimeric Flag-B55α/PP2A holoenzyme), P63151;P30153;P67775; assay: peptide competition of GST-p107 R1R2 pull-down of purified PP2A/B55α, western blot quantified with ImageJ; conditions: lower B55α signal = peptide competes for B55α, read off a plot
[5] = target: T1, purified monomeric full-length B55α (M1-N447) (UniProt P63151 1-447); assay: NMR titration; 2D [1H,15N] HSQC of 15N-labeled p107 (M612-S687) with and without unlabeled B55α mixed at 1:1 ratio; 283 K; 20 mM sodium phosphate pH 6.8, 250 or 50 mM NaCl, 0.5 mM TCEP; conditions: both partners purified
T1 construct: B55α M1-N447; also called B55α_(1-447); purified B55α; source: Expi293F, transfected, purified (GFP-nanobody beads, TEV cleavage, Mono Q); not shown: His6, N-terminal, cleaved; GFP, N-terminal, cleaved
T1 sequence (looked up): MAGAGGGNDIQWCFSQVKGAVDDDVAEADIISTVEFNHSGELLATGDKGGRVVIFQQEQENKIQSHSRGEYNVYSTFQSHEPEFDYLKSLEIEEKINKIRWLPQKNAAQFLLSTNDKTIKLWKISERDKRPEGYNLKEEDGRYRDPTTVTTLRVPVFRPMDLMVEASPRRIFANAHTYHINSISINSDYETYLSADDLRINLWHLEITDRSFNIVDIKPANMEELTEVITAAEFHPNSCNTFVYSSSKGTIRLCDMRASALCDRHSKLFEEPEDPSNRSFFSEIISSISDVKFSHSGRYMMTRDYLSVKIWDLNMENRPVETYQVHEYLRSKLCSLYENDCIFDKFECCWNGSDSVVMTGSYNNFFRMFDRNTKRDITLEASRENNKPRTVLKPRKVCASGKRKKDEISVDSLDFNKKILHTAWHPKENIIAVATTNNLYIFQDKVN

[6] = Peptides (at 300 µM), no-peptide control est. 0.68, parent: est. 0.08
[7] = peptide 120 µM, no-peptide control est. 0.68
[8] = peptide 240 µM, no-peptide control est. 0.68, parent: est. 0.07
[9] = Peptides (at 300 µM), no-peptide control est. 0.72, parent: est. 0.32
[10] = Peptides (at 300 µM), no-peptide control est. 0.68, parent: est. 0.09

Flag-pRB, sequence (P06400 whole entry): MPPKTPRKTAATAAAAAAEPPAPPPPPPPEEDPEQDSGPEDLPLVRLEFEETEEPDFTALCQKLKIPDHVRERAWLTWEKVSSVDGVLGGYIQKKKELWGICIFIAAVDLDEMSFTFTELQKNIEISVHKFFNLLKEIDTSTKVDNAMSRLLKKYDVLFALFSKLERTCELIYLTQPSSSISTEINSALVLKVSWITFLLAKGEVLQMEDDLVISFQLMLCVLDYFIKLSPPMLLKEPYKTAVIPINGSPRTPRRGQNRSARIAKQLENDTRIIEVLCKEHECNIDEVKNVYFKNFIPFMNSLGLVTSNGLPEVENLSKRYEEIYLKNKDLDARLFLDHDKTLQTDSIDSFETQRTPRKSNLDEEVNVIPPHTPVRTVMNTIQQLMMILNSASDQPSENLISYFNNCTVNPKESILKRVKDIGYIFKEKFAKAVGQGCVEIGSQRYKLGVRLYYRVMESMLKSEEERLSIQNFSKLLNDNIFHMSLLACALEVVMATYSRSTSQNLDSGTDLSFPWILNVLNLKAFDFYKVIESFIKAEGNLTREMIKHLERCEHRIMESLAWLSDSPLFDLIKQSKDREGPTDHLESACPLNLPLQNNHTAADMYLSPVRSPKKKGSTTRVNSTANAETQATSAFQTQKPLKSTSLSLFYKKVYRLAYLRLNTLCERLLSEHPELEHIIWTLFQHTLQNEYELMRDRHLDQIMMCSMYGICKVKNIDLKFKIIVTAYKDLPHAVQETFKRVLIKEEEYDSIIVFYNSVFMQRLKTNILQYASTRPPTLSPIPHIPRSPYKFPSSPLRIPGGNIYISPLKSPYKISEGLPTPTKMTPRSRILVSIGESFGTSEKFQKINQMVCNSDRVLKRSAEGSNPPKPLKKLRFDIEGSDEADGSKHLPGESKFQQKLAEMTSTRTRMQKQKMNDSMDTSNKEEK

other: log2 ratio WT-Mut [1]: 5.5 | other: log2 ratio WT-Mut [2]: 3.2
Molecule: GFP-p107-R1 (four copies of R1) H619A; R621A; V622A; V625A

ratio to parent [3]: 0.28
Molecule: Myc-B55α wild type (from UniProt P63151) EEK-AAA

response [4, 6]: 0.02
Molecule: R1 peptide (synthetic p107 peptide encompassing the R1 region) E624A

response [4, 7]: 0.56 | response [4, 8]: 0.57
Molecule: R1 peptide (synthetic p107 peptide encompassing the R1 region) E624A; V625A; R626A

response [4, 9]: 0.38
Molecule: R1 peptide (synthetic p107 peptide encompassing the R1 region) H619A

response [4, 9]: 0.03
Molecule: R1 peptide (synthetic p107 peptide encompassing the R1 region) K623A

response [4, 6]: 0.3
Molecule: R1 peptide (synthetic p107 peptide encompassing the R1 region) M618A

response [4, 7]: 0.43 | response [4, 8]: 0.41
Molecule: R1 peptide (synthetic p107 peptide encompassing the R1 region) M618A; H619A; P620A

response [4, 6]: 0.2
Molecule: R1 peptide (synthetic p107 peptide encompassing the R1 region) P620A

response [4, 9]: 0.55
Molecule: R1 peptide (synthetic p107 peptide encompassing the R1 region) R621A

response [4, 7]: 0.8 | response [4, 8]: 0.92
Molecule: R1 peptide (synthetic p107 peptide encompassing the R1 region) R621A; V622A; K623A

response [4, 9]: 0.08
Molecule: R1 peptide (synthetic p107 peptide encompassing the R1 region) R626A

response [4, 7]: 0.25 | response [4, 8]: 0.1
Molecule: R1 peptide (synthetic p107 peptide encompassing the R1 region) S615A; P616A; L617A

response [4, 7]: 0.04 | response [4, 8]: 0.02
Molecule: R1 peptide (synthetic p107 peptide encompassing the R1 region) T627A; D628A; S629A

response [4, 6]: 0.88
Molecule: R1 peptide (synthetic p107 peptide encompassing the R1 region) V622A

response [4, 6]: 0.98
Molecule: R1 peptide (synthetic p107 peptide encompassing the R1 region) V625A

response [4, 10]: 0.6
Molecule: pS615-R1 phosphopeptide, wildtype H619A

response [4, 10]: 0.82
Molecule: pS615-R1 phosphopeptide, wildtype R621A

binding result [5]: binds
B1: p107 (M612-S687) (domain or fragment, UniProt P28749 612-687, looked up)
chain: MPMSPLMHPRVKEVRTDSGSLRRDMQPLSPISVHERYSSPTAGSAKRRLFGEDPPKEMLMDKIITEGTKLKIAPSS
modifications: 15N-labeled
notes: p107 residues M612-S687, which include R1, R2 and R3; also called p107_(612-687); source: E. coli BL21, purified (HisTrap, TEV cleavage, heating at 80°C, SEC); not shown: His6, N-terminal, cleaved; MBP, N-terminal, cleaved
